According to PMC7732827, “Autoregulation of yeast ribosomal proteins discovered by efficient search for feedback regulation”:

Molecular target: Rpl1B-HIS (Saccharomyces cerevisiae, UniProt P0CX44 1-217)
Test: EMSA; 20 mM Mg2+; 400 nM RNA, 0.1-1 ug protein in 10 ul; 50 mM Tris-HCl pH 8.5, 350 mM KCl, 20 mM MgCl2, 0.1% NP-40, 10% glycerol, 30 min at 4 C; 7.5% Tris-glycine PAGE in the cold room
Conditions: protein: recombinant; tags: C-terminal His6 (HHHHHH); label: none (SYBR Green I stain); two hairpins (HP1, HP2), predicted

Chain of Rpl1B-HIS (P0CX44 whole entry): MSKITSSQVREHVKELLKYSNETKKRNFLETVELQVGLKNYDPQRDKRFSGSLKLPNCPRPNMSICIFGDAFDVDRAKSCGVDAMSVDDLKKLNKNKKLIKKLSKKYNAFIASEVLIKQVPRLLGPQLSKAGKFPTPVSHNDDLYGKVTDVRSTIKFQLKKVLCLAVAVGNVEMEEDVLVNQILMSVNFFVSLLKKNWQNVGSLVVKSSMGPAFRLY

B1: RPL1B-UTR RNA, synthetic (structured_RNA)
RNA: AUAGAACUAGUCGCAAGCCUCACGGACCACCAAAUACUUUGGAAGACUAAUUACAUAUCAUAAA
B1: binds.
